# B1: Influenza B nucleoprotein peptide (aa 85-94), P04665 85-94 (peptide)
# peptide: KLGEFYNQMM
# modifications: not checked
# Molecular target: HLA-A2.1 (HLA-A*0201) with β2-microglobulin on the surface of T2 cells (human)
binder,measurement,value
B1,Median Channel of Fluorescence of HLA-A2 Expression on T2 (median channel of fluorescence),194

# — patent publication US20060045884A1, “Vaccines for autoimmune and infectious disease” (Board of Regents, priority 2004, published 2006)
